Experimental data from the DeepSol protein solubility set.

Test: soluble on expression in E. coli; label from the status in PepcDB or PDB records

| Sequence | soluble on expression in E. coli |
| --- | --- |
| MSLTVQDLHFKNKVNFIGGQYVPSNESDTIDILSPSTGKVIGEIPAGCKADAENALEVAQAAQKAWAKLTARTRQNMLRTFANKIRENKHILAPMLVAEQGKLLSVAEMEVDVTATFIDYGCDNALTIEGDILPSDNQDEKIYIHKVPRGVVVGITAWNFPLALAGRKIGPALITGNTMVLKPTQETPLATTELGRIAKEAGLPDGVLNVINGTGSVVGQTLCESPITKMITMTGSTVAGKQIYKTSAEYMTPVMLELGGKAPMVVMDDADLDKAAEDALWGRFANCGQVCTCVERLYVHASVYDEFMAKFLPLVKGLKVGDPMDADSQMGPKCNQREIDNIDHIVHEAIKQGATVATGGKTATVEGFEGGCWYEPTVLVDVKQDNIVVHEETFGPILPIVKVSSMEQAIEFCNDSIYGLSAYVHTQSFANINQAISDLEVGEVYINRGMGEQHQGFHNGWKQSGFGGEDGKFGLEQYLEKKTVYINEAEGHHHHHH | soluble |
| MGSDKIHHHHHHMQPETSAQYQHRFSQAIRGGEAADGLPQDRLNVYIRLIRNNIHSFIDRCYTETRQYFDSKEWSRLKEGFVRDARAQTPYFQEIPGEFLQYCQSLPLSDGILALMDFEYTQLLAEVAQIPDIPDIHYSNDSKYTPSPAAFIRQYRYDVTHDLQEAETALLIWRNAEDDVMYQTLDGFDMMLLEIMGSSALSFDTLAQTLVEFMPKADNWKNILLGKWSGWIEQRIIIPSLSAISENMEGNSPSQNHLSA | not soluble |
| MSLSGTITFSTGTRAGVYQKYGELLRTELRKDMPGLDVRLMTSAGSQENVERVASGEADFTIAAADAVETYKLAGSPGAEGLRGVTRLYDDYVQLVVPSDSDIQSVRDLRGKRVAIGLPNSGVRLIATRLLKAVGIDPETDITPRADGIDTGPGRLGDELDAFFWSGGVPTDGLKEIAESSAFRFVPIGDDLVTKLHRSGGATRYYRTTNMPESAYPTVQNGAVVPTMAVSNLLVTRADVDPRLTEWLTRTVLDSRDGIGAHVHSAQLVDLRTAIYTDPLELHEGARRYYRSVKEGHHHHHH | soluble |
| MARSFKVLSPTAILGYGFPEESFRKAMAESPDLIAVDAGSSDPGPHYLGAGKPFTDRAGVKRDLRYMITAGVQNNIPVVIGTAGGSGAAPHLEWCREIIHEIAREEHLSFSMALIPADVDKAIVHQALDNGKITALDFVPPLTHDAIDESTYIVAQMGIEPFQRALKERAQVVLGGRAYDPACFAALPIMQGFDEGLALHCGKILECAAIAATPGSGSDCAMGIIDDNGFTLKTFNPKRKFTETSAAAHTLYEKSDPYFLPGPGGVLNLKGCTFKAVNDGEVYVSGSKHEETPYALKLEGARRVGFRCLTIAGTRDPIMIAGIDKIIDEVKTSVSRNLSLDDDSIRINFHLYGKNGVMGDHEPMQTAGHELGIVLDVVAPTQEIANSVCSLVRSTMLHYGYENRIATAGNLAFPFSPSDIQGGPVYEFSIYHLIEANDALRFDFHIEQVTPEGVQA | soluble |
| MSLTRKEKPAKVGGFFVLSYVLGGRLAPASPVASDSNIRLPGGYINNSQKTTIDAVRAALSAARMGTFDTAAGVQSDDDPAALLLYAWNAEVSGAFLAPLHVCEVVIRNAVSDALEALYGPRWPWSATFERSLPDPKQGYSPRRDLQSARRSAQTTGKVIPELKFVFWQKMFTGRYDTRIWDQNLRRVMPNIDPAKPVAALRNAIYGDLERVRLLRNRIAHHEPMFARALADDYQTILVLVTYRCAVTAAWLDSHQTATAIITAKPEGHHHHHH | not soluble |
| MSLGNARMYEALRDYGDRFDTVGIFTFEVDETGTITETGTSISSMLPYIQKWPHIKWLLTIMNHGIANIFTALRNNENGAKDKFLTEIIRIMNKYPWCAGVDIDLERGGGYENKDAANALFRDIYNTVKSYDATKLVNICLPGMIGVQGSVGGENWCVYADLNDYCDTAAIMSYGMAWAGSAPGPVSPRDWLEGIYDYAVSVMSPDKIFMGLPAYGWNWRIHDTPENLGITYRGVSNTYYAAKYWMTGVYNFTGDAPPQPFIPIVAYWDDYNKVPWALPHVYDYMEGWDAVSWEYPLLKGVYNRRRYLTSYGKEQKAEFGTIYIDRNGVPDEYEGNVIITDEMTSLGDAQASAEYRFEIREAGYYDIAVQLCFPYWDKNAIIVSLDGISKTFSENRLWWPYWRRVCWLTLAKGVFLQEGTHAISISGGVPGVQFYGFRVCSGFSEYPFAGEASFMLSPRRFKDVNGVMVEPDRGFKLTFEMLRRKPDSALIWYEDFRDRNILPENYWTVLDGEWDVWQDPDSTENRPYSQLEGYGKLAWKYDGFSDIHIRARLAFPQNSSGRAGVFLGDIFCCLNYDTQRVELYQGNSLLGSYSTSFSKTVDADLRANPNMYTIEMRKRGNKVRVYSGAASTLRFTVNVTGGSGYVGYCSDNRTVCELLRLGDAWVYEPYERFDVELPDGNITSFGRLARTGVTWDDEFQVFSVNNDVEESITRSEDISMDYDFFHSQLLALSCGNDYEVKIILKDINIWISRLFLGDADGFSILYYQDVDSLVYWANEAAYRWKLRGIAIWSLGQEDMRLWEALPKQEGHHHHHH | soluble |
| MLMGMKPLRLCAILASIPPLAMVVRGRIRPKNSRKRFPTIVVLGTAQYDGVPSRQFAARLKWAAEQWHTQRSQKVVTVGGKLPEDRFTEAAVAREYLIKEHVDSDLIVAVEQGHDTRGSLRAALSELEQPILIITDPNHSLRAELIARSEGIAAWASSTPYCPTTFPRWQWWWTFVHEQGGLCVVLIELVAGKDVAQKVEDALRRLQAWLRPSRRARHEQLREERLEHHHHHH | not soluble |
| MTQLCSDVRVSPLPGTAKVGDTYILFEHHGPWSHDILDGGTFDKETSAALKAMGCGFYLIRRHGREGRIERPKKTAYLVFGSAGIAEKLMVDDVTDLLKLDVSGPGKNRQFGAEQEAQPIILVCTHAKRDACCAIKGRPMAQALTEEFPDSPVWECSHTKGHRFAPSMVLMPWGYTWGQLNKPAAFDMYRYAQRGQLFLPGNRGRGIWPMKGQIAEVAVAQQLAQEGETVTLGQLRVESIEEAQAHVADSHTARTWTVFLREEVVAGIVDSCHKPPKTGTAWVADRVKENGA | not soluble |
| MSNQLFDAYFTAPAMREIFSDRGRLQGMLDFEAALARAEASAGLVPHSAVAAIEAACQAERYDTGALANAIATAGNSAIPLVKALGKVIATGVPEAERYVHLGATSQDAMDTGLVLQLRDALDLIEADLGKLADTLSQQALKHADTPLVGRTWLQHATPVTLGMKLAGVLGALTRHRQRLQELRPRLLVLQFGGASGSLAALGSKAMPVAEALAEQLKLTLPEQPWHTQRDRLVEFASVLGLVAGSLGKFGRDISLLMQTEAGEVFEPSAPGKGGSSTMPHKRNPVGAAVLIGAATRVPGLLSTLFAAMPQEHERSLGLWHAEWETLPDICCLVSGALRQAQVIAEGMEVDAARMRRNLDLTQGLVLAEAVSIVLAQRLGRDRAHHLLEQCCQRAVAEQRHLRAVLGDEPQVSAELSGEELDRLLDPAHYLGQARVWVARAVSEHQRFTA | soluble |
| MSLKALARFGKAFGGYKMIHVPQPICGPEDVVTEIKAAAICGADMKHYNVDSGSDEFNSIRGHEFAGCIAQVGEKVKDWKVGQRVVSDNSGHVCGVCPACEQGDFLCCTEKVNLGLDNNTWGGGFSKYCLVPGEILKIHRHALWEIPDGVDYEDAAVLDPICNAYKSIAQQSKFLPGQDVVVIGTGPLGLFSVQMARIMGAVNIVVVGLQEDVAVRFPVAKELGATAVVNGSTEDVVARCQQICGKDNLGLVIECSGANIALKQAIEMLRPNGEVVRVGMGFKPLDFSINDITAWNKSIIGHMAYDSTSWRNAIRLLASGAIKVKPMITHRIGLSQWREGFDAMVDKTAIKVIMTYDFDEGHHHHHH | not soluble |
| MKKIPQISDAELEVMKVIWKHSSINTNEVIKELSKTSTWSPKTIQTMLLRLIKKGALNHHKEGRVFVYTPNIDESDYIEVKS | soluble |
| MSVSLVVIRLELAEHSPVPAGFGFSAAAGEMSDEEIKKTTLASAVACLEGKSPGEKVAIIHQHLGRREMTDVIIETMKSNPDELKTTVEERKSSEASPTAQRSKDHSKECINAAPDSPSKQLPDQISFFSGNPSVEIVHGIMHLYKTNKMTSLKEDVRRSAMLCILTVPAAMTSHDLMKFVAPFNEVIEQMKIIRDSTPNQYMVLIKFRAQADADSFYMTCNGRQFNSIEDDVCQLVYVERAEVLKSEDGASLPVMDLTELPKCTVCLERMDESVNGILTTLCNHSFHSQCLQRWDDTTCPVCRYCQTPEPVEENKCFECGVQENLWICLICGHIGCGRYVSRHAYKHFEETQHTYAMQLTNHRVWDYAGDNYVHRLVASKTDGKIVQYECEGDTCQEEKIDALQLEYSYLLTSQLESQRIYWENKIVRIEKDTAEEINNMKTKFKETIEKCDNLEHKLNDLLKEKQSVERKCTQLNTKVAKLTNELKEEQEMNKCLRANQVLLQNKLKEEERVLKETCDQKDLQITEIQEQLRDVMFYLETQQKINHLPAETRQEIQEGQINIAMASASSPASSGGSGKLPSRKGRSKRGK | soluble |
| MSLNNTKQPVVILVGPTAVGKTNLSIQLAKSLNAEIISGDSMQIYKGMDIGTAKITEQEMEGVPHHLIDILDPQDSFSTADYQSLVRNKISEIANRGKLPMIDGGTGLYIQSELYDYTFTEEANDPVFRESMQMAAEREGADFLHAKLAAADPEAAAAIHPNNTRRVIRALEILHTSGKTMSQHLKEQKRELLYNAVLIGLTMDRDTLYERINQRVDLMMQSGLLPEVKRLYDKNVRDCQSIQAIGYKELYAYFDGFVTLSDAVEQLKQNSRRYAKRQLTWFRNKMQVTWFDMTPPVDMELKKKEIFTHIAGKLELEGHHHHHH | soluble |
| MKNLERLFAEKLLKIKAIKLQPANPFTWASGWKSPFYCDNRKTLSYPSLRNFVKIEITRLILERFGQVDAIAGVATGAIPQGALVADALNLPFVYVRSTPKDHGLENLIEGELRPGMKVVVVEDLISTGGSSLKAVEAIRRDGCEVIGMVAAYTYGFPVAEEAFKNAKVPLVTLTNYEAVLDVALRTGYIEEEDIATLNDWRKDPAHWDAGK | soluble |
| MAHHHHHHMSLADPHPLEAATTPASSLSNSIRLALLPASMKLPRDKSSSPELLAVFLPPDFCCMSVKSSTQNSSLFSSGISTVSPGRGCSVMEWRAIMQPVLLSLFKHWSVAAIRPGLFRRFCVGDVLFARERKLANSTPSAPCVNFPHRSTRVGAPRALRADCSSSSSSCKERKRHEWQDSRASESQEASPLLETSLPLLLWSSG | soluble |
| MAHHHHHHMMSMRPTTGMAPPPTGMAFSATGSSHTGPMRPTTTMGGGTTLGRIQAQVQEGTFTSTVYGYIRDHQYEEAVELLATQLEEFPRSRAAASLMAYCYYMMGDYGEAASLYEQLTKICPNIEEYRVYYAQSLYKAGAYAESNRLCTLITSPQNQTTLNKLQAAIAYEQEDIPQTKSFLDQAPETDTDMLVLRACVLSKEGSYEEALEKFKEAQNAVGFSAALTYNMALMYYKMEQYGPALRHLAEIIDRGVEEHPELNIGTNTEGGEARSVGNTQLLRETALIEAFNLKAAIEYASKNMQAAKEALTDMPPRTDAELDPVTLHNTALINMDENPTNAFKKFNFLLQNPPFPPETFQNLLLFYCKYQYYDLAADVLAENPHLAWQYLSQNNQSLYDFLDGLITAQTSPAEAYRKFDILAQKMVQQLRNMTRRIQEADQSQDAAVAKTAVRTYDVTLEEYIPVLMAQANIYWEMENYPMVEQLFRQSADFCSENDVWKQNVAHVFFMQETKFKEAIRYYSPVVEANRENILNCSAIVLANLCVSYIMTAQNEQAEEIMRRIERAEERLTYEDSSKQPLHLCIVNLVIGTLYCSKGNFEFGISRIIKSLEPYDRKIMTDTWFYAKRCFLALAMNLAKHMVSLKDSSFEEILFFFDQADLHGEKIFAFIHPDPSKQDTSPRNTARWEARQLKKLYLTLKE | not soluble |
